One block for each molecule: values may come before it.
Key:
[1] = target: recombinant full-length H. sapiens CCR4–NOT deadenylase complex (human)
[2] = target: recombinant full-length H. sapiens CCR4–NOT deadenylase complex (human); remark: listed apart in the source
[3] = target: Schizosaccharomyces pombe Ccr4–Not complex with an FITC label on the Not9 subunit (S. pombe) (UniProt P87112); experiment: fluorescence polarisation; fluorescence anisotropy; Puf3 constructs titrated into 25 nM Ccr4–Not with FITC on Not9; 20 mM HEPES pH 8, 100 mM NaCl, 0.5 mM TCEP; quadratic fit; apparent KD
[4] = target: Schizosaccharomyces pombe Ccr4–Not complex with an FITC label on the Not9 subunit (S. pombe, UniProt P87112 1-2100; P87240 1-306; O13870 1-640; Q92368 1-283; O74874 1-690; O74856 …, fluorescein (FITC label) from a CoA–fluorescein conjugate on the YbbR tag at the N terminus); experiment: FP; apparent
[5] = target: Schizosaccharomyces pombe Ccr4–Not complex, full-length, unlabeled (Not1, Not2, Not3, Not4, Not9, Ccr4, Caf1) (S. pombe) (UniProt P87112)

Molecule: Puf3 variant with residues 53–68 and 217–232 both replaced with a GSN linker (from UniProt O94462 1-52; O94462 69-216; O94462 233-732) (natural protein)
Kd [3]: 10000 nM

B1: MBP-tagged full-length S. pombe Puf3 (natural protein)
chain: MFTAVNSNPNASESISGNSAFNFPSAPVSSLDTNNYGQRRPSLLSGTSPTSSFFNSSMISSNYTFPHGSNKQASLESPVSYSNPIPSLTWLSLDGDSPDSLVSTPTAPSANHHGNPFPNGKQSIKAMPSLVNLQEDSVISKFPNSLEVPFRKRSESTSSSLSGLHSDLRPLKTELYGQLNSECGARFPQTLKSPLTPIGGDSARTVSASTARTSDKFFPRHTRAHSDFWIPATSKPSRHASHSSIGDLTTITQSSISSGSGSFKPSWDGSFDSSLMAHQSYGTSPAFANGNSPTLKNDSSFFGSASVRPTVSPIGTSFRQSLPDISAFGIPKTETNPSEVVAPGTIPISVLPTSNFSAATPANPSLINQNGQEFLQQSRVLYLFHANKQRHFELSDILGNVVLFSTDQHGSRFIQQKLATATEEEREAVFQEIASTSCLQLMMDIFGNYVVQKYFEFGNEKQKQILLSQIKGHVFSLSLQMYGCRVVQKAIEYISPEHQVQLIQELDGHVLDCVCDQNGNHVIQKAIECIDTGHLQFILRALRPQIHVLSAHPYGCRVIQRAIEHCHSERKLIIEELLPHILKLTQDQYGNYVVQHILRTGSESDKKYIFDLMIDHLLFLSCHKFASNVVERCISYISDVDRRRILNKIISEKAENCSILMLMMKDKYANYVIQKLLDASPEEERDLLISYIYPHISVLKKFTYGKHLIMSVERFRQKSISAVPKLASKECK
Kd [4]: 160 nM | Kd [3]: 100 nM

B3: Puf3 variant with residues 217–232 replaced with a GSN linker (natural protein)
chain: MFTAVNSNPNASESISGNSAFNFPSAPVSSLDTNNYGQRRPSLLSGTSPTSSFFNSSMISSNYTFPHGSNKQASLESPVSYSNPIPSLTWLSLDGDSPDSLVSTPTAPSANHHGNPFPNGKQSIKAMPSLVNLQEDSVISKFPNSLEVPFRKRSESTSSSLSGLHSDLRPLKTELYGQLNSECGARFPQTLKSPLTPIGGDSARTVSASTARTSDKTSKPSRHASHSSIGDLTTITQSSISSGSGSFKPSWDGSFDSSLMAHQSYGTSPAFANGNSPTLKNDSSFFGSASVRPTVSPIGTSFRQSLPDISAFGIPKTETNPSEVVAPGTIPISVLPTSNFSAATPANPSLINQNGQEFLQQSRVLYLFHANKQRHFELSDILGNVVLFSTDQHGSRFIQQKLATATEEEREAVFQEIASTSCLQLMMDIFGNYVVQKYFEFGNEKQKQILLSQIKGHVFSLSLQMYGCRVVQKAIEYISPEHQVQLIQELDGHVLDCVCDQNGNHVIQKAIECIDTGHLQFILRALRPQIHVLSAHPYGCRVIQRAIEHCHSERKLIIEELLPHILKLTQDQYGNYVVQHILRTGSESDKKYIFDLMIDHLLFLSCHKFASNVVERCISYISDVDRRRILNKIISEKAENCSILMLMMKDKYANYVIQKLLDASPEEERDLLISYIYPHISVLKKFTYGKHLIMSVERFRQKSISAVPKLASKECK
stimulation of Ccr4–Not-mediated deadenylation (in vitro targeted deadenylation assay, t1/2) [5]: 2 fold | Kd [4]: 420 nM

B5: Puf3 construct spanning residues 109–208 (anisotropy) (domain or fragment)
chain: SANHHGNPFPNGKQSIKAMPSLVNLQEDSVISKFPNSLEVPFRKRSESTSSSLSGLHSDLRPLKTELYGQLNSECGARFPQTLKSPLTPIGGDSARTVSA
Kd [4]: > 40000 nM | Kd [3]: > 50000 nM

B6: Puf3 residues 158–258, GST–lipoyl tag fusion with no PUM domain (domain or fragment)
chain: SSSLSGLHSDLRPLKTELYGQLNSECGARFPQTLKSPLTPIGGDSARTVSASTARTSDKFFPRHTRAHSDFWIPATSKPSRHASHSSIGDLTTITQSSISS
Kd [3]: 7000 nM

The remaining lines, values ahead:

fold decrease in stimulation of deadenylation by human CCR4–NOT (in vitro targeted deadenylation assay) [1]: 4 fold | stimulation of removal of the poly(A) tail by human CCR4–NOT [2]: 10 fold
Molecule: PUM1^Δ587 (from UniProt Q14671 588-1186) (domain or fragment)

Kd [4]: ~10000 nM
B2: 1-158 (protein)
chain: MFTAVNSNPNASESISGNSAFNFPSAPVSSLDTNNYGQRRPSLLSGTSPTSSFFNSSMISSNYTFPHGSNKQASLESPVSYSNPIPSLTWLSLDGDSPDSLVSTPTAPSANHHGNPFPNGKQSIKAMPSLVNLQEDSVISKFPNSLEVPFRKRSESTSQSRVLYLFHANKQRHFELSDILGNVVLFSTDQHGSRFIQQKLATATEEEREAVFQEIASTSCLQLMMDIFGNYVVQKYFEFGNEKQKQILLSQIKGHVFSLSLQMYGCRVVQKAIEYISPEHQVQLIQELDGHVLDCVCDQNGNHVIQKAIECIDTGHLQFILRALRPQIHVLSAHPYGCRVIQRAIEHCHSERKLIIEELLPHILKLTQDQYGNYVVQHILRTGSESDKKYIFDLMIDHLLFLSCHKFASNVVERCISYISDVDRRRILNKIISEKAENCSILMLMMKDKYANYVIQKLLDASPEEERDLLISYIYPHISVLKKFTYGKHLIMSVERFRQKSISAVPKLASKECK

fold decrease in stimulation of Ccr4–Not-mediated deadenylation (in vitro targeted deadenylation assay, t1/2) [5]: 2 fold | Kd [4]: 290 nM
B4: Puf3 variant with residues 53–68 replaced with a GSN linker (natural protein)
chain: MFTAVNSNPNASESISGNSAFNFPSAPVSSLDTNNYGQRRPSLLSGTSPTSSSNKQASLESPVSYSNPIPSLTWLSLDGDSPDSLVSTPTAPSANHHGNPFPNGKQSIKAMPSLVNLQEDSVISKFPNSLEVPFRKRSESTSSSLSGLHSDLRPLKTELYGQLNSECGARFPQTLKSPLTPIGGDSARTVSASTARTSDKFFPRHTRAHSDFWIPATSKPSRHASHSSIGDLTTITQSSISSGSGSFKPSWDGSFDSSLMAHQSYGTSPAFANGNSPTLKNDSSFFGSASVRPTVSPIGTSFRQSLPDISAFGIPKTETNPSEVVAPGTIPISVLPTSNFSAATPANPSLINQNGQEFLQQSRVLYLFHANKQRHFELSDILGNVVLFSTDQHGSRFIQQKLATATEEEREAVFQEIASTSCLQLMMDIFGNYVVQKYFEFGNEKQKQILLSQIKGHVFSLSLQMYGCRVVQKAIEYISPEHQVQLIQELDGHVLDCVCDQNGNHVIQKAIECIDTGHLQFILRALRPQIHVLSAHPYGCRVIQRAIEHCHSERKLIIEELLPHILKLTQDQYGNYVVQHILRTGSESDKKYIFDLMIDHLLFLSCHKFASNVVERCISYISDVDRRRILNKIISEKAENCSILMLMMKDKYANYVIQKLLDASPEEERDLLISYIYPHISVLKKFTYGKHLIMSVERFRQKSISAVPKLASKECK

Kd [3]: 800 nM
B7: Puf3 residues 109–258, GST–lipoyl tag fusion with no PUM domain (domain or fragment)
chain: SANHHGNPFPNGKQSIKAMPSLVNLQEDSVISKFPNSLEVPFRKRSESTSSSLSGLHSDLRPLKTELYGQLNSECGARFPQTLKSPLTPIGGDSARTVSASTARTSDKFFPRHTRAHSDFWIPATSKPSRHASHSSIGDLTTITQSSISS
